Test results from patent US20250042994A1 (HAINAN SIMCERE ZAIMING PHARMACEUTICAL, published 2025).

Legend:
human CD19 on Raji cells = target: T1, human CD19 on Raji cells (human, UniProt P15391 20-556); assay: FACS on Raji cells
T1 construct: whole, on cells
T1 sequence (looked up): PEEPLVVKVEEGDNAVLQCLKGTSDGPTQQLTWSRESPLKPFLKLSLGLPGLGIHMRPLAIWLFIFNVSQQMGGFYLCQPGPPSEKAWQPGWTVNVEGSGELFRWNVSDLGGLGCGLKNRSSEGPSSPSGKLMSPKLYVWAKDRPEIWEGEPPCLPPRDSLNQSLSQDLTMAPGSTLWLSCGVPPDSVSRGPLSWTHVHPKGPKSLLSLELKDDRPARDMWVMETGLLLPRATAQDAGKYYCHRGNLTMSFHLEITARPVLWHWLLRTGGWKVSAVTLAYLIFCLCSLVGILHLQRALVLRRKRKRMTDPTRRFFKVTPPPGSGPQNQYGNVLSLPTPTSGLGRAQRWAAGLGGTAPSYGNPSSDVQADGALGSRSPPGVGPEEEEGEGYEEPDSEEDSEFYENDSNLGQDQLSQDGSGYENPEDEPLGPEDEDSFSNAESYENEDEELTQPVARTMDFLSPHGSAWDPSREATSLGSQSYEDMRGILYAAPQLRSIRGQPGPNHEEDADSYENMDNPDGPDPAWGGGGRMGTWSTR

Human CD19-his protein [1] = target: T2, Human CD19-his protein (human, UniProt P15391 20-291); assay: SPR Biacore, method of example 7.1, human CD19-His
T2 construct: bought protein; also called recombinant human CD19-His; CD19 full-length protein; not shown: His tag
T2 sequence (looked up): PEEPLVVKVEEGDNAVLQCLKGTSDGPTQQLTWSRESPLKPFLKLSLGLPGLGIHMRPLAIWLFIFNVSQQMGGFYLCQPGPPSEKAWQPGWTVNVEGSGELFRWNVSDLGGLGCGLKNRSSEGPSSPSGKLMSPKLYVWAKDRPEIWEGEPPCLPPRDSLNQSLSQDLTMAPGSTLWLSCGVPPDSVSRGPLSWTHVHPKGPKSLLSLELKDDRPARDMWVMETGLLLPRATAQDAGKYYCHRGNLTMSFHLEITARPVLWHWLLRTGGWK
How it was run: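 Apparent KD from Langmuir 1:1 fit of double-referenced sensorgrams. CD19-His analyte (200 nM top, 1:1 dilution, 5 concentrations) flowed 240 s at 30 μl/min over Protein A-captured antibody at 25 °C in HBS-EP+; dissociation monitored up to 600 s, regeneration 10 mM glycine pH 1.5.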

Human CD19-his protein [2] = target: T2, Human CD19-his protein; assay: ELISA, coated human CD19-His
Human CD19-his protein [3] = target: T2, Human CD19-his protein; assay: ELISA on coated human CD19-His
[4] = target: T3, human CD19 on CHO-K1-human CD19 cells (human, UniProt P15391 20-556); assay: FACS on CHO-K1-human CD19 cells
T3 construct: whole, on cells; also called CHO-K1-human CD19-2C8
T3 sequence (looked up): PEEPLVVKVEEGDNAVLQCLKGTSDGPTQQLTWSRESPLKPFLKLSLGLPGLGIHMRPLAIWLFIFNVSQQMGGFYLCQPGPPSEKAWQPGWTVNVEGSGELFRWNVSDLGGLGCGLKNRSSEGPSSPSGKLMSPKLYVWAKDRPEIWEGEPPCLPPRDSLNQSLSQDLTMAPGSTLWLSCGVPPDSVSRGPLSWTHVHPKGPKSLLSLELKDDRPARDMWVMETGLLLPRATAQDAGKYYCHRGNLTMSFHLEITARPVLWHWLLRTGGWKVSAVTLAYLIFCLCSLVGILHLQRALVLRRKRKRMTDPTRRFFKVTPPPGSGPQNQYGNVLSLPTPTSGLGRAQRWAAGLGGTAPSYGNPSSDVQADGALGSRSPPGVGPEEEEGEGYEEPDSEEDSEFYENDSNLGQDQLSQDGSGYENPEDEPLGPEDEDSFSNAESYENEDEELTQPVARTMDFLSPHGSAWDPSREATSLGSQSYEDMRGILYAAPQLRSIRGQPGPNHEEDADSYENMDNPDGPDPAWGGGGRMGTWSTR

Human CD19-his protein [5] = target: T2, Human CD19-his protein; assay: SPR Biacore, Ab captured on Protein A, CD19-His analyte
How it was run: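 Apparent KD came from a Langmuir 1:1 fit of double-referenced sensorgrams. Recombinant human CD19-His analyte (top 200 nM, 1:1 serial dilution, 5 concentrations) flowed over Protein A-captured antibody for 240 s at 30 μl/min, then buffer for up to 600 s. Running buffer HBS-EP+ at 25 °C; regeneration with 10 mM glycine pH 1.5.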

[6] = target: T4, human CD19 exon1-3-His tag protein (human, UniProt P15391 20-186, limits assumed); assay: ELISA, coated human CD19 exon 1-3-His
T4 construct: membrane-distal part of the extracellular region, made in HEK293E cells; not shown: His tag
T4 sequence (looked up): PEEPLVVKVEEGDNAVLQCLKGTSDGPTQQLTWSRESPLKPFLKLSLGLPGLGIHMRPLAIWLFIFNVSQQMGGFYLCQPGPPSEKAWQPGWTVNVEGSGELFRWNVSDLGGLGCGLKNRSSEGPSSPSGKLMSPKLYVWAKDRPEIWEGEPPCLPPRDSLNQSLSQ

[7] = target: T4, human CD19 exon1-3-His tag protein; assay: ELISA on coated human CD19 exon 1-3-His
murine CD19 protein = target: T5, murine CD19 protein (murine, UniProt P25918 17-287, limits assumed); assay: ELISA
T5 construct: bought protein; also called commercial murine CD19
T5 sequence (looked up): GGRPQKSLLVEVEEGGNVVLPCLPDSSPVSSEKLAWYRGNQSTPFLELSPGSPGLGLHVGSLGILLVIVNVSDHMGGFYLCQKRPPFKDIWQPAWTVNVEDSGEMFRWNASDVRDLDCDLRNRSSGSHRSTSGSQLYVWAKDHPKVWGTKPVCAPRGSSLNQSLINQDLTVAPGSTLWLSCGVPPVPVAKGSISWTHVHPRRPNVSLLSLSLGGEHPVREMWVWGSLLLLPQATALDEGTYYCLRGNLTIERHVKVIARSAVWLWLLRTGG
Description: Human CD19-his protein (purchased from ACROBiosystems, catalog number: CD9-H52H2) was diluted with PBS to a final concentration of 4 μg/mL, and then added to a 96-well ELISA plate at 100 μl/well. The plate was sealed with a plastic film and incubated overnight at 4° C., the plate was washed 2 times with PBS the next day, and then a blocking solution [PBS+2% (w/w) BSA] was added for blocking at room temperature for 2 h. The blocking solution was poured off, and 100 nM gradiently diluted CD19 chimeric antibody or control antibody was added at 50 μl/well. After incubation at 37° C. for 2 h, the plate was washed 3 times with PBS. […] TMB substrate was added at 50 μl/well, and incubated at room temperature for 10 min, and then a stop solution (1.0 N HCl) was added at 50 μl/well. The OD450 nm values were read by an ELISA microplate reader (Multimode Plate Reader, EnSight, purchased from Perkin Elmer).
In order to detect the species cross-binding activity of the chimeric antibodies, an ELISA plate was coated with commercial murine CD19 (ACROBiosystems, catalog number: 50510-M08H) and monkey CD19 (ACROBiosystems, catalog number: 90051-C08H), respectively, and the ELISA detection was performed according to the method in example 5.1. […]

[8] = target: T6, human CD19 exon1-3-his protein (human, UniProt P15391 20-186, limits assumed); assay: ELISA, coated at 2 ug/mL
T6 construct: made in HEK293E cells; also called membrane-distal end; not shown: His tag
T6 sequence (looked up): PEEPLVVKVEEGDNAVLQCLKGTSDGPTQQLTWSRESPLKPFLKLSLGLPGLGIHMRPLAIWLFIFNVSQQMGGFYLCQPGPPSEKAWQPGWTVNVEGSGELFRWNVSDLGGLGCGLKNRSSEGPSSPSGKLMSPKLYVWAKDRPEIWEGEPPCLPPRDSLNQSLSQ

B1: F3.121.4 (antibody, human IgG1, V domains shown)
VH: QVQLQQPGAELVVPGTSVKLSCKASGYTFTNYWMHWVKQRPGQGLEWIGEIDPSDNYANYNQEFQGKATLTVDKSSSTAYMQLSSLTSDDSAVYYCARHDGYFGALDYWGQGTSVTVSS
VL: EIVLTQSPTTMAASPGEKITITCSASSSISSNYLHWYQQKPGFSPKFLIYRTSNLASGVPARFSGSGSGTSYSLTIGTMEAEDVATYYCQQASSIPRMFTFGSGTKLEIK
notes: human-murine chimeric antibody, human IgG1 constant; also called chimeric antibody F3.121.4
- EC50 (human CD19 on Raji cells): 0.31 nM
- Maximum mean fluorescence intensity (human CD19 on Raji cells): 32900 MFI
- Kd (Human CD19-his protein [1]): 1.15 nM
- koff (Human CD19-his protein [1]): 0.000375 s⁻¹
- kon (Human CD19-his protein [1]): 327000 M⁻¹ s⁻¹
- OD450 at 0.0001 nM (Human CD19-his protein [2]): 0.05 OD450
- OD450 at 0.001 nM (Human CD19-his protein [2]): 0.06 OD450
- OD450 at 0.01 nM (Human CD19-his protein [2]): 0.11 OD450
- OD450 at 0.10 nM (Human CD19-his protein [2]): 0.5 OD450
- OD450 at 1.00 nM (Human CD19-his protein [2]): 0.88 OD450
- OD450 at 10 nM (Human CD19-his protein [2]): 1.04 OD450
- OD450 at 100 nM (Human CD19-his protein [2]): 0.82 OD450
- EC50 (read off the curve) (Human CD19-his protein [3]): ~0.1 nM
- EC50 [4]: 0.3 nM
- Maximum mean fluorescence intensity [4]: 53700 MFI
- Kd (Human CD19-his protein [5]): 1.15 nM
- koff (Human CD19-his protein [5]): 0.000375 s⁻¹
- kon (Human CD19-his protein [5]): 327000 M⁻¹ s⁻¹
- OD450 at 0.0001 nM [6]: 0.05 OD450
- OD450 at 0.001 nM [6]: 0.05 OD450
- OD450 at 0.01 nM [6]: 0.05 OD450
- OD450 at 0.10 nM [6]: 0.05 OD450
- OD450 at 1.00 nM [6]: 0.05 OD450
- OD450 at 10 nM [6]: 0.05 OD450
- OD450 at 100 nM [6]: 0.07 OD450
- binding result [7]: no binding (tested: 100 nM)

B2: F3.121.4-L1H2 (antibody, mouse IgG1, kappa, V domains shown)
VH: EVQLVQSGAEVKKPGASVKVSCKASGYTFTNYWMHWVRQAPGQGLEWMGEIDPSDNYANYNQEFQGRVTITVDKSASTAYMELSSLRSEDTAVYYCARHDGYFGALDYWGQGTTVTVSS
VL: EIVLTQSPATLSLSPGERATLSCSASSSISSNYLHWYQQKPGQAPRFLIYRTSNLASGIPARFSGSGSGTDFTLTISSLEPEDFAVYYCQQASSIPRMFTFGQGTKLEIKR
notes: murine IgG1 constant regions; also called humanized antibody of F3.121.4
- binding result (murine CD19 protein): no binding
- binding result [8]: no binding

B3: F3.121.4-L1H1 (antibody, mouse IgG1, kappa, V domains shown)
VH: EVQLVQSGAEVKKPGASVKVSCKASGYTFTNYWMHWVRQAPGQRLEWMGEIDPSDNYANYNQEFQGRVTITVDKSASTAYMELSSLRSEDTAVYYCARHDGYFGALDYWGQGTTVTVSS
VL: EIVLTQSPATLSLSPGERATLSCSASSSISSNYLHWYQQKPGQAPRFLIYRTSNLASGIPARFSGSGSGTDFTLTISSLEPEDFAVYYCQQASSIPRMFTFGQGTKLEIKR
notes: as for B2
- binding result (murine CD19 protein): no binding
- binding result [8]: no binding
